# Source: PMC11272584 (Nature Metabolism, 2024)
# Residue numbers refer to the chain shown, from its start. Numbers in names are those of the source.
# T1: GIPR R38L (Homo sapiens, UniProt P48546, R38L)
# T1 construct: host or cells: HEK293
# T1 sequence (P48546 22-466 R38L): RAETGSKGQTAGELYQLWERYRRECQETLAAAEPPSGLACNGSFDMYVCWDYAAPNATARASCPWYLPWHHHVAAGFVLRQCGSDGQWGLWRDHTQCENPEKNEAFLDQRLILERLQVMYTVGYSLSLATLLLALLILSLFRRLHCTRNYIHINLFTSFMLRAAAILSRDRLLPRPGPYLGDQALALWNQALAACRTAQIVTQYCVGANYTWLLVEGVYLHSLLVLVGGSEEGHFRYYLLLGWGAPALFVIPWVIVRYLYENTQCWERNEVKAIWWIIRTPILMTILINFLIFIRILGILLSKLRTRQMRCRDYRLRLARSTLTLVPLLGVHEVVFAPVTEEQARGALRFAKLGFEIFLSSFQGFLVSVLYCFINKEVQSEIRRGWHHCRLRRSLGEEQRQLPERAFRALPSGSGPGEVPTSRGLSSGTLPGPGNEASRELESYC
# T2: GIPR E463Q (Homo sapiens, UniProt P48546, E463Q)
# T2 construct: host or cells: HEK293
# T2 sequence (P48546 22-466 E463Q): T1 sequence (P48546 22-466 R38L) with L17R, E442Q
# T3: GIPR E461* (Homo sapiens, UniProt P48546)
# T3 construct: host or cells: HEK293
# T3 sequence (P48546 22-460 limits assumed): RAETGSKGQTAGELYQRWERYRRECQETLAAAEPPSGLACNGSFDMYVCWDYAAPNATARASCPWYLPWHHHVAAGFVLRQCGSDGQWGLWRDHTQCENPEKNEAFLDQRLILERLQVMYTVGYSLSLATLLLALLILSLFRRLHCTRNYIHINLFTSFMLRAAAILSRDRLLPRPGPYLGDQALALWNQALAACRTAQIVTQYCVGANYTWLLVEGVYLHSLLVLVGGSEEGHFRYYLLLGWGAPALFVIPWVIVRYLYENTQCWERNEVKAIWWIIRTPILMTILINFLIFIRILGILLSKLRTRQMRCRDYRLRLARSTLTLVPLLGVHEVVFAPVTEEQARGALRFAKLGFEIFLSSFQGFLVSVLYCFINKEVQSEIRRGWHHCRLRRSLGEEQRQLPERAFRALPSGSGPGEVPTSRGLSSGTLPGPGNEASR
# T4: GIPR T25R (Homo sapiens, UniProt P48546, T25R)
# T4 construct: host or cells: HEK293
# T4 sequence (P48546 22-466 T25R): T1 sequence (P48546 22-466 R38L) with T4R, L17R
# T5: GIPR S415I (Homo sapiens, UniProt P48546, S415I)
# T5 construct: host or cells: HEK293
# T5 sequence (P48546 22-466 S415I): T1 sequence (P48546 22-466 R38L) with L17R, S394I
# T6: GIPR E418K (Homo sapiens, UniProt P48546, E418K)
# T6 construct: host or cells: HEK293
# T6 sequence (P48546 22-466 E418K): T1 sequence (P48546 22-466 R38L) with L17R, E397K
# T7: GIPR G449A (Homo sapiens, UniProt P48546, G449A)
# T7 construct: host or cells: HEK293
# T7 sequence (P48546 22-466 G449A): T1 sequence (P48546 22-466 R38L) with L17R, G428A
# B1: R38L (protein)
# chain: T1 sequence (P48546 22-466 R38L)
# B2: E463Q (protein)
# chain: T1 sequence (P48546 22-466 R38L) with L17R, E442Q
# B3: E461* (protein)
# chain: T3 sequence (P48546 22-460 limits assumed)
# B4: T25R (protein)
# chain: T1 sequence (P48546 22-466 R38L) with T4R, L17R
# B5: S415I (protein)
# chain: T1 sequence (P48546 22-466 R38L) with L17R, S394I
# B6: G449A (protein)
# chain: T1 sequence (P48546 22-466 R38L) with L17R, G428A
# B7: E418K (protein)
# chain: T1 sequence (P48546 22-466 R38L) with L17R, E397K
# Molecular target: T1, GIPR R38L
# Assay: cAMP accumulation
# Type: cell-based
# Conditions: not given
# Method: HEK293 (CRL-1573, American Type Culture Collection) and β-arrestin 1/2 knockout cells, generated from HEK293A[48], were used for cAMP measurement, homologues competition binding and β-arrestin 2 recruitment. […] Both cell lines were cultured at 5% CO2 at 37 °C in Roswell Park Memorial Institute GlutaMAX-I supplemented with 10% fetal bovine serum, 180 units ml^−1 penicillin, and 45 g ml^−1 streptomycin. For the cAMP and binding experiments, cells were transfected with the calcium phosphate precipitation method[49]. The polyethyleneimine (PEI) transfection method was used for the β-arrestin 2 recruitment assays[50], endosomal signalling and basal receptor localization assays, while the lipofectamine transfection method was used for the internalization assay.
# cAMP production was measured with the DiscoverX Hithunter cAMP assay according to the manufacturer’s protocol (DiscoverX). […] On the day of the assay, the cells were washed twice with HEPES-buffered saline (HBS) and incubated with HBS and 1 mM 3-isobutyl-1-methylxanthine for 30 min at 37 °C. […] After a 3-h incubation on a shaking table in the dark, the cAMP accumulation was measured based on luminescence with a Perkin Elmer EnVision 2104 Multilabel Microplate Reader. […]
row,Efficacy at 100pmol (cAMP),Molecule
1,0.843,B1

# Molecular target: T2, GIPR E463Q
# Assay: cAMP accumulation
# Type: cell-based
# Conditions: not given
row,Efficacy at 100pmol (cAMP),Molecule
1,0.9097,B2

# Molecular target: T3, GIPR E461*
# Assay: cAMP accumulation
# Type: cell-based
# Conditions: not given
row,Efficacy at 100pmol (cAMP),Molecule
1,1.495,B3

# Molecular target: T4, GIPR T25R
# Assay: cAMP accumulation
# Type: cell-based
# Conditions: not given
row,Efficacy at 100pmol (cAMP),Molecule
1,0.6972,B4

# Molecular target: T5, GIPR S415I
# Assay: cAMP accumulation
# Type: cell-based
# Conditions: not given
row,Efficacy at 100pmol (cAMP),Molecule
1,0.6572,B5

# Test system: GIPR variants (groups)
# Assay: β-arrestin 2 recruitment (BRET);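 further: BRET readout of β-arrestin 2 recruitment in transiently transfected HEK293 cells expressing WT GIPR or a GIPR variant plus GPCR kinase 2, Rluc8 donor and citrine acceptor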
# Conditions: arr part of the in vitro group
# Method: Both cell lines were cultured at 5% CO2 at 37 °C in Roswell Park Memorial Institute GlutaMAX-I supplemented with 10% fetal bovine serum, 180 units ml^−1 penicillin, and 45 g ml^−1 streptomycin. […] The polyethyleneimine (PEI) transfection method was used for the β-arrestin 2 recruitment assays[50], endosomal signalling and basal receptor localization assays, while the lipofectamine transfection method was used for the internalization assay.
# Measurement of β-arrestin 2 recruitment was performed with a BRET assay. Two days before the assay, the HEK293 cells were transiently transfected with either WT GIPR or the GIPR variants together with the donor Rluc8-Arrestin-3-Sp1, the acceptor mem-linker-citrine-SH3 and the GPCR kinase 2 to facilitate β-arrestin 2 recruitment. On assay day, the cells were washed with PBS and resuspended in PBS supplemented with 5 mmol l^−1 glucose. Subsequently, 85 µl of the cell suspension was transferred to a white 96-well plate and 10 µl of 50 µM coelenterazine-h was added.
row,Molecule,In vitro groups (β-arrestin)
1,B5,WT-like_arr
2,B2,WT-like_arr
3,B6,WT-like_arr
4,B1,WT-like_arr
5,B4,LoF_arr
6,B7,WT-like_arr
7,B3,WT-like_arr

# Same assay, conditions: in vitro β-arrestin recruitment per GIPR variant
row,Molecule,"Beta, Barr"
1,B5,0.9285
2,B2,0.4933
3,B6,0.5256
4,B1,0.8228
5,B4,0.193
6,B7,0.9111

# Molecular target: T6, GIPR E418K
# Assay: cAMP accumulation
# Type: cell-based
# Conditions: not given
row,Efficacy at 100pmol (cAMP),Molecule
1,0.7942,B7

# Test system: GIPR variants (groups)
# Assay: cAMP accumulation
# Type: cell-based, human
# Conditions: cAMP part of the in vitro group
row,Molecule,In vitro groups (cAMP)
1,B5,WT-like_camp
2,B2,WT-like_camp
3,B6,WT-like_camp
4,B1,WT-like_camp
5,B4,WT-like_camp
6,B7,WT-like_camp
7,B3,GoF_camp

# Same assay, conditions: cAMP production compared with WT
row,Molecule,percentage_camp [% cAMP]
1,B5,>50
2,B2,>50
3,B6,>50
4,B1,>50
5,B4,>50
6,B7,>50
7,B3,>50

# Same assay, conditions: in vitro cAMP production per GIPR variant
row,Molecule,"Beta, cAMP"
1,B5,0.6572
2,B2,0.9097
3,B6,0.609
4,B1,0.843
5,B4,0.6972
6,B7,0.7942

# Molecular target: T7, GIPR G449A
# Assay: cAMP accumulation
# Type: cell-based
# Conditions: not given
row,Efficacy at 100pmol (cAMP),Molecule
1,0.609,B6
